In patent publication US20210253720A1 (KEROS THERAPEUTICS, published 2021):

Key:
[1] = biological target: ALK2 on C2C12-BRE-Luciferase cells
[2] = biological target: T1, ALK2-FC (UniProt Q04771 21-123, limits assumed); assay: BLI, ForteBio Octet RED384; monovalent fAB-FH against ALK2-FC
T1 construct: Only the embodiments speak of 'human ALK2'; not shown: Fc part
T1 sequence (looked up): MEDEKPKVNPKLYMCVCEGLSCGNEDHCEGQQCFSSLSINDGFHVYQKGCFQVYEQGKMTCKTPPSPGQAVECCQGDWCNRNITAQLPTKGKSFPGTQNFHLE

[3] = biological target: T1, ALK2-FC; assay: BLI, ForteBio Octet; fAB against ALK2-FC; fAB, ForteBio Octet against ALK2-FC
[4] = biological target: ALK2 on C2C12-BRE-Luciferase cells; remark: listed apart in the source
[5] = biological target: T1, ALK2-FC; assay: BLI, ForteBio Octet; fAB against ALK2-FC

ALK2 on C2C12-BRE-Luciferase cells, sequence (P37172 whole entry): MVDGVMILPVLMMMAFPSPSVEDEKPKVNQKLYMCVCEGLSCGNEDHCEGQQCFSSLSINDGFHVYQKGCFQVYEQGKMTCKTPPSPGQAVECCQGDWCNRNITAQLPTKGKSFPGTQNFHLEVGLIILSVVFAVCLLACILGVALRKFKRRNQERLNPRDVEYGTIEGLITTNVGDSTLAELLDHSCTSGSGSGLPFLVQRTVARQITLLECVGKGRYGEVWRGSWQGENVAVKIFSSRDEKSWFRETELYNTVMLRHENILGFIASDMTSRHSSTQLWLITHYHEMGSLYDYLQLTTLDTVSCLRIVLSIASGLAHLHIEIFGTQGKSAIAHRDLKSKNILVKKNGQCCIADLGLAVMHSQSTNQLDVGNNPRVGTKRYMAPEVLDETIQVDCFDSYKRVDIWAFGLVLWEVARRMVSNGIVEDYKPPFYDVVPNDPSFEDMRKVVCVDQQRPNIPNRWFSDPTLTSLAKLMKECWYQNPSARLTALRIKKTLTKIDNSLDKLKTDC

B1: Antibody 6, monovalent fAB in fAB-FH format (Fab, V domains shown)
VH: EVQLLESGGGLVQPGGSLRLSCAASGFTFGRFVMHWVRQAPGKGLEWVSVIGYSGSSTYYADSVKGRFTISRDNSKNTLYLQMNSLRAEDTAVYYCAREPGYYYPSGYYRGPGYWMDVWGQGTLVTVSS
VL: DIQMTQSPSSLSASVGDRVTITCRASQGISGNWLTWYQQKPGKAPKLLIYDASNLQSGVPSRFSGSGSGTDFTLTISSLQPEDFATYYCHQSYRGPMTFGQGTKVEIKR
notes: also called Anti-ALK2 fAB
- IC50, inhibition of BMP6 (40 ng/mL)-induced SMAD1 (BRE) luciferase signal in C2C12 cells; fit type not given [1]: 1.16 µg/mL
- Kd [2]: 2.9 nM
- koff [2]: 0.00349 s⁻¹

B2: Antibody 1, monovalent fAB in fAB-FH format (Fab, V domains shown)
VH: QVQLVQSGAEVKKPGSSVKVSCKASGGTFSSYGVSWVRQAPGQGLEWMGGIIPHFGIANYAQKFQGRVTITADESTSTAYMELSSLRSEDTAVYYCAREIGSLDIWGQGTLVTVSS
VL: DIVLTQPPSVSGAPGQRVTISCSGSSSNIGSNYVSWYQQLPGTAPKVLIYKNNHRPSGVPDRFSGSKSGTSASLAITGLQAEDEADYYCASWDHSDRFYVFGGGTKLTVLG
notes: also called Anti-ALK2 fAB
- Kd [3]: 4 nM
- Kd [2]: 4 nM
- koff [2]: 0.00172 s⁻¹
- IC50 (3 Param fit), inhibition of BMP6 (40 ng/mL)-induced SMAD1 (BRE) luciferase signal in C2C12 cells, ng/mL is the unit of the x axis [4]: 1750 ng/mL
- IC50 (4 Param fit), inhibition of BMP6 (40 ng/mL)-induced SMAD1 (BRE) luciferase signal in C2C12 cells, ng/mL is the unit of the x axis [4]: 1830 ng/mL

B3: Antibody 2, monovalent fAB in fAB-FH format (Fab, V domains shown)
VH: EVQLVESGGGLVKPGGSLRLSCAASGFTFSSHAMSWVRQAPGKGLEWVGRIKSKADSGTTDYAAPVKGRFTISRDDSKNTLYLQMNSLKTEDTAVYYCARDYGVAFAYWGQGTLVTVSS
VL: DIELTQPPSVSVSPGQTASITCSGDSIPSFFASWYQQKPGQAPVLVIYRDSNRPSGIPERFSGSNSGNTATLTISGTQAEDEADYYCYVTAPWKSIWVFGGGTKLTVLG
notes: also called Anti-ALK2 fAB
- Kd [5]: 0.7 nM
- Kd [2]: 0.7 nM
- koff [2]: 0.000357 s⁻¹
- IC50 (3 Param fit), inhibition of BMP6 (40 ng/mL)-induced SMAD1 (BRE) luciferase signal in C2C12 cells, ng/mL is the unit of the x axis [4]: 145 ng/mL
- IC50 (4 Param fit), inhibition of BMP6 (40 ng/mL)-induced SMAD1 (BRE) luciferase signal in C2C12 cells, ng/mL is the unit of the x axis [4]: 221 ng/mL

B4: Antibody 3, monovalent fAB in fAB-FH format (Fab, V domains shown)
VH: EVQLVESGGGLVKPGGSLRLSCAASGFTFNSSAMSWVRQAPGKGLEWVGRIKSKRDGYTTDYAAPVKGRFTISRDDSKNTLYLQMNSLKTEDTAVYYCARDYGGLKFDYWGQGTLVTVSS
VL: DIELTQPPSVSVSPGQTASITCSGDNIGTKYAYWYQQKPGQAPVLVIYGDSDRPSGIPERFSGSNSGNTATLTISGTQAEDEADYYCYSADAQQMKAVFGGGTKLTVLG
notes: also called Anti-ALK2 fAB
- Kd [5]: 4.4 nM
- Kd [2]: 4.4 nM
- koff [2]: 0.00149 s⁻¹
- IC50 (3 Param fit), inhibition of BMP6 (40 ng/mL)-induced SMAD1 (BRE) luciferase signal in C2C12 cells, ng/mL is the unit of the x axis [4]: 1460 ng/mL
- IC50 (4 Param fit), inhibition of BMP6 (40 ng/mL)-induced SMAD1 (BRE) luciferase signal in C2C12 cells, ng/mL is the unit of the x axis [4]: 1490 ng/mL

B5: Antibody 4, monovalent fAB in fAB-FH format (Fab, V domains shown)
VH: QVQLVQSGAEVKKPGSSVKVSCKASGGTFSSYAIHWVRQAPGQGLEWMGRIIPDFGTANYAQKFQGRVTITADESTSTAYMELSSLRSEDTAVYYCARGPTQAIHYFAYWGQGTLVTVSS
VL: DIELTQPPSVSVSPGQTASITCSGDNLRKYSAHWYQQKPGQAPVLVIYYDNKRPSGIPERFSGSNSGNTATLTISGTQAEDEADYYCQVYASVHRMVFGGGTKLTVLG
notes: also called Anti-ALK2 fAB
- Kd [2]: 1.8 nM
- koff [2]: 0.000759 s⁻¹
- IC50 (3 Param fit), inhibition of BMP6 (40 ng/mL)-induced SMAD1 (BRE) luciferase signal in C2C12 cells, ng/mL is the unit of the x axis [4]: 465 ng/mL
- IC50 (4 Param fit), inhibition of BMP6 (40 ng/mL)-induced SMAD1 (BRE) luciferase signal in C2C12 cells, ng/mL is the unit of the x axis [4]: 462 ng/mL

B6: Antibody 5, monovalent fAB in fAB-FH format (Fab, V domains shown)
VH: EVQLLESGGGLVQPGGSLRLSCAASGFTFSSAAMHWVRQAPGKGLEWVSVISSDGGSTYYADSVKGRFTISRDNSKNTLYLQMNSLRAEDTAVYYCARAGFILGSLGVAWMDVWGQGTLVTVSS
VL: DIELTQPPSVSVSPGQTASITCSGDSLGSKSVHWYQQKPGQAPVLVIYRDSKRPSGIPERFSGSNSGNTATLTISGTQAEDEADYYCQTYDWSHFGWVFGGGTKLTVLG
- IC50 (3 Param fit), inhibition of BMP6 (40 ng/mL)-induced SMAD1 (BRE) luciferase signal in C2C12 cells, ng/mL is the unit of the x axis [4]: 710 ng/mL
- IC50 (4 Param fit), inhibition of BMP6 (40 ng/mL)-induced SMAD1 (BRE) luciferase signal in C2C12 cells, ng/mL is the unit of the x axis [4]: 754 ng/mL

B7: Antibody 8, monovalent fAB in fAB-FH format (Fab, V domains shown)
VH: EVQLLESGGGLVQPGGSLRLSCAASGFTFSDYAMHWVRQAPGKGLEWVSSIFYSGSNTYYADSVKGRFTISRDNSKNTLYLQMNSLRAEDTAVYYCARPKSYASGPFAYWGQGTLVTVSS
VL: DIELTQPPSVSVSPGQTASITCSGDALRYYIAHWYQQKPGQAPVLVIYYNNNRPSGIPERFSGSNSGNTATLTISGTQAEDEADYYCQSYGPGSVVFGGGTKLTVLG
notes: also called Anti-ALK2 fAB
- IC50, inhibition of BMP6 (40 ng/mL)-induced SMAD1 (BRE) luciferase signal in C2C12 cells; fit type not given [1]: 0.367 µg/mL
- Kd [2]: 6.3 nM
- koff [2]: 0.00576 s⁻¹

B8: Antibody 9, monovalent fAB in fAB-FH format (Fab, V domains shown)
VH: QVQLVQSGAEVKKPGSSVKVSCKASGGTFSTHAISWVRQAPGQGLEWMGLIQPRFGTANYAQKFQGRVTITADESTSTAYMELSSLRSEDTAVYYCARDYYGGMAYWGQGTLVTVSS
VL: DIVLTQPPSVSGAPGQRVTISCSGSSSNIGQNYVSWYQQLPGTAPKLLIYDNSKRPSGVPDRFSGSKSGTSASLAITGLQAEDEADYYCSSWDLLSKSRVFGGGTKLTVLG
notes: also called Anti-ALK2 fAB
- IC50, inhibition of BMP6 (40 ng/mL)-induced SMAD1 (BRE) luciferase signal in C2C12 cells; fit type not given [1]: 1.27 µg/mL
- Kd [2]: 14 nM
- koff [2]: 0.0149 s⁻¹
